This is an account of results in article PMC5584161, “Selective compounds enhance osteoblastic activity by targeting HECT domain of ubiquitin ligase Smurf1” (Oncotarget, 2016).

To fix the notation:
B2: GST-Smurf1 (Smad ubiquitination regulatory factor-1) (enzyme, UniProt Q9HCE7-2 1-731, looked up)
chain: MSNPGTRRNGSSIKIRLTVLCAKNLAKKDFFRLPDPFAKIVVDGSGQCHSTDTVKNTLDPKWNQHYDLYVGKTDSITISVWNHKKIHKKQGAGFLGCVRLLSNAISRLKDTGYQRLDLCKLNPSDTDAVRGQIVVSLQTRDRIGTGGSVVDCRGLLENEGTVYEDSGPGRPLSCFMEEPAPYTDSTGAAAGGGNCRFVESPSQDQRLQAQRLRNPDVRGSLQTPQNRPHGHQSPELPEGYEQRTTVQGQVYFLHTQTGVSTWHDPRIPRDLNSVNCDELGPLPPGWEVRSTVSGRIYFVDHNNRTTQFTDPRLHHIMNHQCQLKEPSQPLPLPSEGSLEDEELPAQRYERDLVQKLKVLRHELSLQQPQAGHCRIEVSREEIFEESYRQIMKMRPKDLKKRLMVKFRGEEGLDYGGVAREWLYLLCHEMLNPYYGLFQYSTDNIYMLQINPDSSINPDHLSYFHFVGRIMGLAVFHGHYINGGFTVPFYKQLLGKPIQLSDLESVDPELHKSLVWILENDITPVLDHTFCVEHNAFGRILQHELKPNGRNVPVTEENKKEYVRLYVNWRFMRGIEAQFLALQKGFNELIPQHLLKPFDQKELELIIGGLDKIDLNDWKSNTRLKHCVADSNIVRWFWQAVETFDEERRARLLQFVTGSTRVPLQGFKALQGSTGAAGPRLFTIHLIDANTDNLPKAHTCFNRIDIPPYESYEKLYEKLLTAVEETCGFAVE
notes: Smurf1, HECT-type ubiquitin ligase; also called GST-tagged Smurf1; source: bacteria-expressed, immobilized on Glutathione-Sepharose 4B beads

Assay in all cases: pull-down; GST fusion immobilized on Glutathione-Sepharose 4B beads, incubated with the partner for 8 h at 4°C; washed with GST-binding buffer (100 mM NaCl, 50 mM NaF, 2 mM EDTA, 1% NP-40); immunoblotting; also run with B06 and B75 where the paper says they had no effect
Holding throughout (conditions): both partners purified
A general note: In western blotting, separated proteins are transferred to a membrane and probed.

Assay [1] concerns the target B2.
The target in a further assay is T1, UbcH7 (UniProt P68036 1-154).
T1 construct: UbcH7, ubiquitin-conjugating enzyme (E2) of Smurf1; The methods say the assay is the same as GST-Smurf1 with His-Ub, so a His tag is likely; also called E2; source: prokaryotic expressed, purified
T1 sequence (P68036 whole entry): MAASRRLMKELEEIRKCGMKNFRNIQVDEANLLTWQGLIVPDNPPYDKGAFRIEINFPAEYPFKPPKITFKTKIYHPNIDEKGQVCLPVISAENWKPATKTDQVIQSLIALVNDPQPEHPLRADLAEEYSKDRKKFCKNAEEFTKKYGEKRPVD

A further assay addresses T2, His-Ub (ubiquitin) (UniProt P0CG48 1-76).
T2 construct: ubiquitin, single (mono) ubiquitin; also called mono-Ub; single Ub protein

B1: UbcH5c (enzyme)
chain: not shown
notes: UbcH5c, ubiquitin-conjugating enzyme (E2) of Smurf1; The methods say the assay is the same as GST-Smurf1 with His-Ub, so a His tag is likely; also called E2; source: prokaryotic expressed, purified
With B1, the binding result in assay [1] is “binds”.
In the case of B2, the binding result with UbcH7 and with His-Ub (ubiquitin) was “binds” throughout.
